The record followed here is US20110055942A1.

In this assay the target is T1, BMPR-1A receptor extra cellular domain (ECD), P36894.
T1 chain: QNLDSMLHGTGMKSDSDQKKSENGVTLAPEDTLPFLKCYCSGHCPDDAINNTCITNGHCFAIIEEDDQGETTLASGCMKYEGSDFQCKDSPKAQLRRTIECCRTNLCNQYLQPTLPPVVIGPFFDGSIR
Kind of assay: radio-ligand competition: cold TDF-1 displacing 125I-labeled TDF-1 from immobilized BMPR-1A ECD. The following applies: remark: other sources report otherwise.

B1: TDF-1 (BMP-7 or OP-1), P18075 293-431 (ligand, UniProt P18075 293-431, looked up)
chain: STGSKQRSQNRSKTPKNQEALRMANVAENSSSDQRQACKKHELYVSFRDLGWQDWIIAPEGYAAYYCEGECAFPLNSYMNATNHAIVQTLVHFINPETVPKPCCAPTQLNAISVLYFDDSSNVILKKYRNMVVRACGCH
B1 yielded an ED50 of 6.5 nM.
